These results are taken from patent US8513197B2, “Ganglioside epitopes for treating Guillain-Barre syndrome” (Georgia Regents University, priority 2009, dated 2013).

Read-outs that look alike come from different tables or passages of the source. No end group written: not given here.

The subject of series [1] is LOSGD3-sensitized rats. Description: Rotarod motor test. As to conditions: LOSGD3/peptide group vs LOSGD3 treatment group, week 17.
Experimental: Twelve-week-old female Lewis rats weighing 200-250 g were used. One hundred micrograms LOSGD3 was dissolved in 50 mM PBS buffer with a vehicle of 0.05 ml keyhole limpet hemocyanin (KLH; 2 mg/ml) and emulsified with an equal volume of complete Freund's adjuvant (CFA). Rats were given a single subcutaneous injection of 0.1 ml inoculum (or vehicle) into the shoulders and the footpads of the hind limbs. In addition, booster injections were administered similarly to injections in LOSGD3 (or vehicle)-treated animals at 2-week intervals with 100 μg LOSGD3 (or no additive) and 2 mg/ml KLH in PBS emulsified with an equal volume of incomplete Freund's adjuvant (ICFA) 6 weeks thereafter. Sixteen experimental animals were divided into four groups (n=4 each): 1) LOSGD3, 2) LOSGD3/BEC2, 3) vehicle, and 4) vehicle/BEC2. The remaining animals were included as the untreated control group (n=4). As shown in the third and fourth stepladders of FIG. 2, BEC2 (5 mg kg^−1) was administered to rats once per week from 8 to 15 weeks.
A rat was placed on a rotating roller (4 cm in diameter), and the time for which the rat remained on the roller was measured. The test included eight trials; each trial was performed at an interval of 10 min; four trials were performed. An additional four trials were conducted after 24 hr. When the rat could stay on the rotating rod at a constant speed of 5 rpm for a cumulative duration of at least 2 sec, the rotation speed was increased by 0.2 rpm/sec.
Twelve-week-old female Lewis rats, weighing 200-220 g each, were used. One hundred micrograms of LOSGD3 was dissolved in 50 mM PBS buffer as vehicle, and with 0.05 mL of keyhole limpet hemocyanin (2 mg/mL) emulsified with an equal volume of complete Freund's adjuvant. A single subcutaneous injection of 0.1 mL of inoculum (or vehicle) was made into the rats' shoulders and hind limb footpads. […]
A further series deals with mAb R24. Description: Competitive inhibition ELISA: binding of mAb R24 to GD3-coated plate. How it is done:
Subsequently, an aliquot (100 μl) was added to each well, and each well of the ELISA plate was coated with 0.1 μg GD3. The remaining binding activity of mAb R24 was determined by ELISA. Values are means±SD, n=6 individual experiments. […] The experiment at each dose was performed on three rats, and values are means±SD.
(§1) Antiganglioside antibody activity was evaluated for GM1, GM2, GD1a, GD1b, GT1b, GQ1b, GD3, and LOSGD3 by conventional ELISA method (Usuki et al., 2005. J Neurol Sci 232: 37-44). […] Before the ELISA plate assay, each well was treated with 1% BSA/PBS solution. […] After incubation, the reaction mixture was passed through a 0.22-μm syringe filter (Millipore Corp., Bedford, Mass.). Subsequently, 100 μl of the mixture was added to each well and incubated for 1 hr at room temperature. To each of the wells, a secondary antibody (horseradish peroxidase-conjugated anti-mouse IgG, 1:5,000 dilution in 1% BSA/PBS solution) was added and incubated for 1 hr at room temperature. Finally, the bound secondary antibody was visualized by addition of a color-generating reagent (OPD Peroxidase Substrate). The absorbance was measured at 492 nm with a microplate spectrophotometer (Bio-Rad, Hemel Hempstead, United Kingdom). The nomenclature of gangliosides is based on that of Svennerholm (Svennerholm, 1964. J Lipid Res 5: 145-155).
FIG. 8 illustrates the effect of GD3-like peptides on binding of R24 mAb to GD3 by ELISA. Each of the GD3-peptide mimics in solution (PGD3-1, PGD3-2, PGD3-3, PGD3-4, PGD3-5, or PGD3-6) was incubated with R24 mAb for 30 min at room temperature at various concentrations as indicated in the horizontal axis. An aliquot of the mixtures (100 μL), was added to each well of an ELISA plate coated with 0.1 μg of GD3. The remaining binding activity of R24 mAb was measured by ELISA. Values are mean±SEM, n=6 individual experiments.
(§2) Anti-ganglioside antibody activity was evaluated for GM1, GM2, GD1a, GD1b, GT1b, GQ1b, GD3, and LOSGD3 by conventional ELISA as previously described (Usuki et al., 2005. J. Neurol. Sci. 232:37-44). To measure half-maximal inhibitory concentrations (IC50s) of GD3-like peptides for binding of GD3 to mAb R24, each well of the ELISA plate (Immunlon 1B, Lab System, Franklin, Mass., USA) was coated with 0.1 μg of GD3, and prior to ELISA assay was treated by 1% BSA/PBS solution. The purified mAb R24 IgG (10 μg/mL by 1% BSA/PBS solution) was incubated with various concentrations of GD3-like peptides (PGD3-1, PGD3-2, PGD3-3, PGD3-4, PGD3-5, and PGD3-6) for 30 min. After incubation, the reaction mixture was passed through a 0.22-μm syringe filter (Millipore Corp., Bedford, Mass., USA), and 100 μL of the mixture was added to each well and incubated for 1 h at room temperature. A secondary antibody (horseradish peroxidase-conjugated anti-mouse IgG, 1:5000 dilution in 1% BSA/PBS solution) was applied, incubated for 1 h at room temperature, and visualized by addition of a color-generating reagent (OPD Peroxidase Substrate). The absorbance was measured at 492 nm with a microplate spectrophotometer (BioRad, Hemel Hempstead, UK).

For series [2], the system named is LOSGD3-sensitized rats. Kind of series: Nerve conduction velocity (NCV) in rat tail nerve. As to conditions: LOSGD3/peptide-treated groups, week 16.
Experimental: Twelve-week-old female Lewis rats, weighing 200-220 g each, were used. One hundred micrograms of LOSGD3 was dissolved in 50 mM PBS buffer as vehicle, and with 0.05 mL of keyhole limpet hemocyanin (2 mg/mL) emulsified with an equal volume of complete Freund's adjuvant. A single subcutaneous injection of 0.1 mL of inoculum (or vehicle) was made into the rats' shoulders and hind limb footpads. Additional booster injections were administered similarly to LOSGD3- (or vehicle-) treated animals at 2-week intervals with 100 μg of LOSGD3 (or no additive) and 2 mg/mL of keyhole limpet hemocyanin in PBS emulsified with an equal volume of incomplete Freund's adjuvant after 6 weeks. Forty-four experimental animals were grouped into 10 treatment paradigms (n=4 each): (i) LOSGD3, (ii) LOSGD3/PGD3-3, (iii) LOSGD3/PGD3-4, (iv) LOSGD3/PGD3-5, (v) LOSGD3/PGD3-6, (vi) vehicle, (vii) vehicle/PGD3-3, (viii) vehicle/PGD3-4, (ix) vehicle/PGD3-5, and (x) LOSGD3/PGD3-6. The remaining four animals were the untreated control group (n=4). […]
NCVs (m/s) were measured in the rat tail nerve using a Nicolet VikingQuest EMG machine (NeuroCare Group, Madison, Wis., USA) according to the method described previously (Usuki et al., 2006. J. Neurosci. Res. 83:274-284).
The subject of series [3] is anti-GD3 antibody and anti-LOSGD3 antibody. Description: Time course of serum anti-GD3 and anti-LOSGD3 antibody (ELISA) in immunized rats. It counts as in vivo, Lewis rats. The note with it: peptide 1000 nmol/kg i.p. daily, from weeks 8, 11 and 14. The procedure:
as §1
as §2, with “A secondary antibody (horseradish peroxidase-conjugated anti-mouse IgG, 1:5000 dilution in 1% BSA/PBS solution) was applied, incubated for 1 h at room temperature, and visualized by addition of a color-generating reagent (OPD Peroxidase Substrate).” left out
Background: An ELISA detects its analyte on a solid surface through an enzyme-linked reagent.

Series [4] can be described thus: Pharmacokinetic study of bPGD3-4 after i.p. single dose (streptavidin-coated ELISA of plasma). As to conditions: for tmax: normal Lewis rats.
Experimental: Briefly, the plasma samples from the single-dose administration of bPGD3-4 were applied to the streptavidin-coated ELISA plates at serial double dilutions in 1% bovine serum albumin/phosphate buffered-saline (BSA/PBS) solution. […] After washing with 1% BSA/PBS buffer, each well was treated with an anti-mouse IgG horseradish peroxidase-conjugated antibody (Jackson ImmunoResearch Lab, West Grove, Pa., USA). This secondary antibody was pre-treated with rat IgG to eliminate contamination from any anti-rat IgG binding activity. Finally, the bound secondary antibody was visualized by a color-generating reagent (OPD Peroxidase Substrate in PBS; Sigma, St Louis, Mo., USA). Half-saturation absorbance values for plasma samples were estimated by serial plasma dilution curves of ELISA. The absorbances were then converted into values of plasma concentration using a standard serial dilution curve of rat serum containing authentic bPGD3-4.
A Micro-Renathane polyurethane cannula, 0.84 mm o.d.×0.36 mm i.d., (Braintree Scientific Inc., Braintree, Mass.) was inserted before dosing into the femoral vein of a female Lewis rat (n=9; body weight=200±20 g). […] Blood samples were centrifuged at room temperature and the plasma harvested. The plasma samples were stored at −60° C. to −80° C. until analyzed by a streptavidin-coated ELISA plate for determining the total concentration of bPGD3-4.
The following parameters were calculated: maximum-, minimum-, and average-observed plasma concentration (Cmax, Cmin, and Cav), areas under the plasma concentration-time curve from zero to infinite time (AUC) plasma clearance (CL), distribution half-life (t1/2α), and elimination half-life (t1/2β).
[5] abbreviates: as restated in Example 12, read-out: IC50 values for the active peptides.
Where [6] appears, read: simulated, 1,000 nmol kg^−1 i.p. at 24-hourly intervals for 7 days.
Where [7] appears, read: i.p. single dose 100.0 nmol kg^−1, mean (SD).
[8] abbreviates: i.p. single dose 500.0 nmol kg^−1, mean (SD).
Where [9] appears, read: i.p. single dose 1000.0 nmol kg^−1, mean (SD).

One may read the IC50 as the point on the concentration scale where inhibition reaches its midpoint. Consider ACTPYAMLPGCK [PGD3-5, GD3-like peptide], for which, in the series with LOSGD3-sensitized rats [1], the “rotarod retention time / motor performance” value is “did not show any statistically significant differences”. Further, the “inhibitory activity on GD3 reactivity to mAb R24” value (“inhibitory activity” for short) in the series with mAb R24 (ELISA) was “remarkable inhibitory activities”. Further, the IC50 was determined as 100 nM at mAb R24 (setting [5]) and 100 nM at mAb R24 (read-out: IC50, competitive inhibition of GD3 reactivity to mAb R24, ELISA, 0.1 μg GD3 per well, as printed in Example 11). The “effect on NCV” value with LOSGD3-sensitized rats [2] was “less attenuation of NCV”. For the same substance, the “effect on serum anti-GD3 / anti-LOSGD3 antibody level” value in series [3] is reported as “effective in suppressing serum anti-GD3 antibody activity”.

Consider “GLAPPDYAERFFLIS [PGD3-3, GD3-like peptide]”, for which, in the series on LOSGD3-sensitized rats [1], the “rotarod retention time / motor performance” value is “did not show any statistically significant differences”. Also, the “inhibitory activity” value in the series with mAb R24 (ELISA) was “remarkable inhibitory activities”. At mAb R24 (setting [5]), the IC50 was 300 nM. For the same substance, the “effect on serum anti-GD3 / anti-LOSGD3 antibody level” value in series [3] is recorded as “no suppression of either anti-LOSGD3 or anti-GD3 antibodies”.

As for “LAPPRPRSELVFLSV [PGD3-1, GD3-like peptide]”, the “inhibitory activity” value with mAb R24 (ELISA) is listed as “little or no inhibitory activity”.

For “PHFDSLLYPCELLGC [PGD3-2, GD3-like peptide]”, the “inhibitory activity” value in the series with mAb R24 (ELISA) is “little or no inhibitory activity”.

In general, Cmax refers to the maximum level reached in the sampled fluid or tissue. As to RHAYRSMAEWGFLYS [PGD3-4], the Cmax in series [4] (read-out: Cmax, chronic simulation, simulated, 1,000 nmol kg^−1 i.p. at 24-hourly intervals for 7 days) is 670 µM. Further, in series [4] (setting [6]), the “Cav, chronic simulation” value is 340 µM and the “Cmin, chronic simulation” value is 0.33 µM.

With “SVAVPPPADDPSWRY [PGD3-6, GD3-like peptide]”, the “rotarod retention time / motor performance” value in the series with LOSGD3-sensitized rats [1] was “did not show any statistically significant differences”. In the series with mAb R24 (ELISA), the “inhibitory activity” value is recorded as “remarkable inhibitory activities”. In addition, the IC50 at mAb R24 (setting [5]) was 250 nM. Also, the “effect on serum anti-GD3 / anti-LOSGD3 antibody level” value in series [3] is listed as “no suppression of either anti-LOSGD3 or anti-GD3 antibodies”.

With “bPGD3-4: biotinylated product of GD3-like peptide PGD3-4 (RHAYRSMAEWGFLYS; also: biotinylated, site not given here)”, in series [4] (setting [7]), the “AUC (zero to infinite time)” value is 130.0 (43.6) nmol mL^−1 hr, the “CL (plasma clearance)” value is 0.82 (0.24) mL hr^−1, the concentration peaked (Cmax) at 70.8 µM and the “t1/2α (distribution half-life)” value is 0.48 (0.03) hr. In series [4] (setting [7]), the “t1/2β (elimination half-life)” value is listed as 2.45 (0.27) hr. Further, in series [4] (setting [8]), the “AUC (zero to infinite time)” value is listed as 589.2 (72.9) nmol mL^−1 hr, the “CL (plasma clearance)” value was 0.86 (0.11) mL hr^−1, the concentration peaked (Cmax) at 267 µM and the “t1/2α (distribution half-life)” value is recorded as 0.42 (0.03) hr. In addition, in series [4] (setting [8]), the “t1/2β (elimination half-life)” value is on record as 2.45 (0.33) hr. Moreover, in series [4] (setting [9]), the “AUC (zero to infinite time)” value is 1425.7 (78.8) nmol mL^−1 hr, the “CL (plasma clearance)” value was 0.71 (0.04) mL hr^−1, the Cmax was found to be 667 µM and the “t1/2α (distribution half-life)” value is reported as 0.46 (0.03) hr. Besides, the “t1/2β (elimination half-life)” value in series [4] (setting [9]) is recorded as 2.76 (0.42) hr. The same substance registered a tmax in series [4] (i.p. single dose 100.0 nmol kg^−1, n = 3) of 30 min. This substance gave a tmax in series [4] (i.p. single dose 500.0 nmol kg^−1, n = 3) of 30 min. Also, the tmax in series [4] (i.p. single dose 1000.0 nmol kg^−1, n = 3) was determined as 30 min. Also, in series [4] (rats, i.p. single dose of 100, 500 and 1,000 nmol kg^−1), the “death or toxicity after peptide administration” value is given as “None of the experimental rats died or exhibited toxicity”. For the same substance, the linearity of pharmacokinetics entry in series [4] (single-dose range 100-1000 nmol kg^−1) was “linear pharmacokinetics”.
